Experimental findings from US20210069341A1 (published 2021) are described below.

One experiment has as its target T1, human FcγRI (human, UniProt P12314 16-288).
T1 chain: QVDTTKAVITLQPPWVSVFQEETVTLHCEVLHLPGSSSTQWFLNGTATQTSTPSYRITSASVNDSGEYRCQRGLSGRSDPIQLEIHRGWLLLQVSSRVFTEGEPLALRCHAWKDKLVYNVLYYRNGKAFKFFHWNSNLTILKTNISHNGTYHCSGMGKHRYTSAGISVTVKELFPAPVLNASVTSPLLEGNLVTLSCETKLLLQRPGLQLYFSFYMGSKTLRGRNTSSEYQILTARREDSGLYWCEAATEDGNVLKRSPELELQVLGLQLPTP
Put plainly: binding affinity.

The next experiment concerns the target T2, human FcγRIIa (human, UniProt P12318 36-218).
T2 chain: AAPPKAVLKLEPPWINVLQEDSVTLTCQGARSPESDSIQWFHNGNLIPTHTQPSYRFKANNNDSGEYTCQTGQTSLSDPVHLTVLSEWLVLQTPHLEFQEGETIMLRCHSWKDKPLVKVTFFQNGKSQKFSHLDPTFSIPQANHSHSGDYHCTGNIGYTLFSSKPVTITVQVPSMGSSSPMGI
Kind of experiment: binding affinity.

Another experiment deals with T3, human FcγRIIb (human, UniProt P31994 46-217).
T3 chain: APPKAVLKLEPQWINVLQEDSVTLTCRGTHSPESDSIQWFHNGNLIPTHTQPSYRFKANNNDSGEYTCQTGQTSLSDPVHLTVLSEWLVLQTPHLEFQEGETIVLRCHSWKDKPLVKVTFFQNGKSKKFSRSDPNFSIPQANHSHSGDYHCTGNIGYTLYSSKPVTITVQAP
Put plainly: binding affinity.

Experiment [1] concerns the target human FcγRIIIa, 158F allele (human, UniProt P08637 17-208). Put plainly: binding affinity.
Experiment [2] has as its target human FcγRIIIa, 158V allele (human, UniProt P08637 17-208). Kind of experiment: binding affinity.
Another experiment deals with human FcRn protein (human, UniProt P55899 24-297; P61769 21-119). Put plainly: binding affinity; pH 6.

The term Kd denotes a measure of binding affinity in units of concentration.

Chain of human FcRn protein (P55899 24-297, chain 1 of 2): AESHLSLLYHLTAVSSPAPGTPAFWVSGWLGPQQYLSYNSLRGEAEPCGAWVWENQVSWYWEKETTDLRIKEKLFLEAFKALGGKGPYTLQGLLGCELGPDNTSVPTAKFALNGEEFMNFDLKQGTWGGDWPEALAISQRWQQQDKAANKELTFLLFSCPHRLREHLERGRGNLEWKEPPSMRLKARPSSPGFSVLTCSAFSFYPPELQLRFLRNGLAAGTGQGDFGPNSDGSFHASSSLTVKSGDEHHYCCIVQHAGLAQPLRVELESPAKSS
Chain of human FcRn protein (P61769 21-119, chain 2 of 2): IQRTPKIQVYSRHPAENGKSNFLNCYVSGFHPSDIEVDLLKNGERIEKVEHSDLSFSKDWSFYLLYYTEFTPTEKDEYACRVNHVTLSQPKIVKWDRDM
Chain of human FcγRIIIa, 158F allele (P08637 17-208): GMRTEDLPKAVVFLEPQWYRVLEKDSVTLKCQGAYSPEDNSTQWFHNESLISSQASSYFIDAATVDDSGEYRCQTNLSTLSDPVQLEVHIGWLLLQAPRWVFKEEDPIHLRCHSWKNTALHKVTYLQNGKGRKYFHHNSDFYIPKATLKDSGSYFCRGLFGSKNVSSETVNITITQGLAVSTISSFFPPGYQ
Chain of human FcγRIIIa, 158V allele (P08637 17-208 F176V): as the sequence (P08637 17-208) above, with F160V counted along it

B1: antibody with the L234F/S239A/S442C triple mutation (Fc receptor affinity analysis) (antibody)
Fc: APEFLGGPAVFLFPPKPKDTLMISRTPEVTCVVVDVSHEDPEVKFNWYVDGVEVHNAKTKPREEQYNSTYRVVSVLTVLHQDWLNGKEYKCKVSNKALPAPIEKTISKAKGQPREPQVYTLPPSRDELTKNQVSLTCLVKGFYPSDIAVEWESNGQPENNYKTTPPVLDSDGSFFLYSKLTVDKSRWQQGNVFSCSVMHEALHNHYTQKSLCLSPGK
For the molecule B1, the Kd with human FcγRI was approximately 16 nM; in the experiment with human FcγRIIa it was 2540 nM; with human FcγRIIb it was 6310 nM; in experiment [1], 5700 nM; in experiment [2], 1460 nM; with human FcRn protein, 976 nM.

B2: antibody with the C239ins cysteine engineered Fc region (Fc receptor affinity analysis) (antibody)
Fc: APELLGGPSCVFLFPPKPKDTLMISRTPEVTCVVVDVSHEDPEVKFNWYVDGVEVHNAKTKPREEQYNSTYRVVSVLTVLHQDWLNGKEYKCKVSNKALPAPIEKTISKAKGQPREPQVYTLPPSRDELTKNQVSLTCLVKGFYPSDIAVEWESNGQPENNYKTTPPVLDSDGSFFLYSKLTVDKSRWQQGNVFSCSVMHEALHNHYTQKSLSLSPGK
B2: the Kd in the experiment with human FcγRI is approximately 133 nM; with human FcRn protein, 1050 nM.
